This passage reports in vitro chemotaxis of murine lymphocytes (48-well microchemotaxis chamber): concentration of maximum activity results from patent publication US20030138452A1.

The target in test [1] is chemokine receptors of MCP-3 on murine splenocytes and purified T cells. The experiment in a line: cell-based or functional assay.
For test [2], the target named is chemokine receptor of IP-10 on murine splenocytes and purified T cells (murine) (UniProt O88410). The test is described as follows: cell-based or functional assay.
Sequence of UniProt O88410 (O88410 whole entry): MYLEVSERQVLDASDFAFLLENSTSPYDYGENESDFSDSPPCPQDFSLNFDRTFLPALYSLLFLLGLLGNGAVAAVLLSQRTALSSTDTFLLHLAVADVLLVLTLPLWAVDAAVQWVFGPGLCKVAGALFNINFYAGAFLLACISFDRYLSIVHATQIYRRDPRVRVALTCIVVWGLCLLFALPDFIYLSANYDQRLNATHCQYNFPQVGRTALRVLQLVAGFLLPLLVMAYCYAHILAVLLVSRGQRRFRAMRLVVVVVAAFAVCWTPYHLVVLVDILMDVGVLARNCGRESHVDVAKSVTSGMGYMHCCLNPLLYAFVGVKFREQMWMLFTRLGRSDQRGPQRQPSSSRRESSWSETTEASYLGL

With “MCP3FBscFv38MH (MCP-3 fused to scFv38 of the 38c13 lymphoma) (from UniProt Q03366 24-97)”, in test [1], the in vitro chemotaxis of murine lymphocytes (48-well microchemotaxis chamber): concentration of maximum activity amounted to 100 µg/mL.

B1: IP10FBscFv38MH (murine IP-10 fused to scFv38 of the 38c13 lymphoma) (protein, part only; not given: scFv38 VH and VL, tags, not shown: small tags and cut ends)
chain, part: IPLARTVRCNCIHIDDGPVRMRAIGKLEIIPASLSCPRVEIIATMKKNDEQRCLNPESKTIKNLMKAFSQKRSKRAPEFNDQAPKSLE
Consider B1, for which the in vitro chemotaxis of murine lymphocytes (48-well microchemotaxis chamber): concentration of maximum activity in test [2] was 100 µg/mL.
